Values belong to the molecule of their own block, whether it stands above or below them.
B1: GIPC MIR, C-terminal SNAP-tagged (domain or fragment, human, UniProt O14908 261-333, looked up)
chain: EEKAIEKVDDLLESYMGIRDTELAATMVELGKDKRNPDELAEALDERLGDFAFPDEFVFDVWGAIGDAKVGRY
modifications: benzylguanine-labeled DNA oligo on the SNAP tag (DNA origami scaffold assay)
B2: Myosin VI FL-SNAP (natural protein, human, UniProt Q9UM54 1-1294, looked up)
chain: MEDGKPVWAPHPTDGFQMGNIVDIGPDSLTIEPLNQKGKTFLALINQVFPAEEDSKKDVEDNCSLMYLNEATLLHNIKVRYSKDRIYTYVANILIAVNPYFDIPKIYSSEAIKSYQGKSLGTRPPHVFAIADKAFRDMKVLKMSQSIIVSGESGAGKTENTKFVLRYLTESYGTGQDIDDRIVEANPLLEAFGNAKTVRNNNSSRFGKFVEIHFNEKSSVVGGFVSHYLLEKSRICVQGKEERNYHIFYRLCAGASEDIREKLHLSSPDNFRYLNRGCTRYFANKETDKQILQNRKSPEYLKAGSMKDPLLDDHGDFIRMCTAMKKIGLDDEEKLDLFRVVAGVLHLGNIDFEEAGSTSGGCNLKNKSAQSLEYCAELLGLDQDDLRVSLTTRVMLTTAGGTKGTVIKVPLKVEQANNARDALAKTVYSHLFDHVVNRVNQCFPFETSSYFIGVLDIAGFEYFEHNSFEQFCINYCNEKLQQFFNERILKEEQELYQKEGLGVNEVHYVDNQDCIDLIEAKLVGILDILDEENRLPQPSDQHFTSAVHQKHKDHFRLTIPRKSKLAVHRNIRDDEGFIIRHFAGAVCYETTQFVEKNNDALHMSLESLICESRDKFIRELFESSTNNNKDTKQKAGKLSFISVGNKFKTQLNLLLDKLRSTGASFIRCIKPNLKMTSHHFEGAQILSQLQCSGMVSVLDLMQGGYPSRASFHELYNMYKKYMPDKLARLDPRLFCKALFKALGLNENDYKFGLTKVFFRPGKFAEFDQIMKSDPDHLAELVKRVNHWLTCSRWKKVQWCSLSVIKLKNKIKYRAEACIKMQKTIRMWLCKRRHKPRIDGLVKVGTLKKRLDKFNEVVSVLKDGKPEMNKQIKNLEISIDTLMAKIKSTMMTQEQIQKEYDALVKSSEELLSALQKKKQQEEEAERLRRIQEEMEKERKRREEDEKRRRKEEEERRMKLEMEAKRKQEEEERKKREDDEKRIQAEVEAQLARQKEEESQQQAVLEQERRDRELALRIAQSEAELISDEAQADLALRRSLDSYPVSKNDGTRPKMTPEQMAKEMSEFLSRGPAVLATKAAAGTKKYDLSKWKYAELRDTINTSCDIELLAACREEFHRRLKVYHAWKSKNKKRNTETEQRAPKSVTDYDFAPFLNNSPQQNPAAQIPARQREIEMNRQQRFFRIPFIRPADQYKDPQSKKKGWWYAHFDGPWIARQMELHPDKPPILLVAGKDDMEMCELNLEETGLTRKRGAEILPRQFEEIWERCGGIQYLQNAIESRQARPTYATAMLQSLLK
modifications: Cy3-conjugated (single-molecule TIRF assay); benzylguanine-labeled DNA oligo on the SNAP tag (nanotube and origami assays)

How the values were obtained:
[1] = target: mCerulean (mCer)-tagged myosin VI CBD (human) (UniProt Q9UM54); assay: FRET or BRET; bimolecular FRET in solution; CBD-mCer held constant at 30 nM, increasing GIPC MIR–mCit titrated; excitation 430 nm; ΔFRET fit to a hyperbolic dose–response; three protein preparations
[2] = target: B2; assay: cell-based or functional assay
[3] = target: B1; assay: cell-based or functional assay

Kd [1]: 120 nM
Molecule: mCitrine (mCit)-tagged GIPC MIR (from UniProt O14908 261-333) (domain or fragment)

Molecule: B1
actin gliding speed in the DNA nanotube assay (Myosin VI FL-SNAP patterned at 14 or 28 nm spacing), with 2 μM GIPC MIR against without [2]: 2.5 fold

Molecule: B2
speed of DNA origami scaffolds on single actin filaments, myosin VI recruited through GIPC MIR against direct attachment [3]: 2.3 fold

Reference: PMC8908270, “Multimodal regulation of myosin VI ensemble transport by cargo adaptor protein GIPC” (The Journal of Biological Chemistry, 2022)
